Results on one molecule are retold here after article PMC4718636, “Recombinant hTRBP and hPACT Modulate hAgo2-Catalyzed siRNA-Mediated Target RNA Cleavage In Vitro” (PLoS ONE, 2016).

This assay deals with T1, GST-hAgo2 (human Argonaute2) (human, UniProt Q9UKV8 1-859).
T1 construct: human Argonaute2 (hAgo2); In the cleavage assays hAgo2 stood with siRNA (hAgo2/siRNA complex); also called wt-hAgo2; hArgonaute2; source: expressed and purified as previously described [27]
Briefly: pull-down; pulldown assays shown only in Figure I of the S1 Supporting Information File; format not given. As to conditions: both partners purified.

T1 sequence (Q9UKV8 whole entry): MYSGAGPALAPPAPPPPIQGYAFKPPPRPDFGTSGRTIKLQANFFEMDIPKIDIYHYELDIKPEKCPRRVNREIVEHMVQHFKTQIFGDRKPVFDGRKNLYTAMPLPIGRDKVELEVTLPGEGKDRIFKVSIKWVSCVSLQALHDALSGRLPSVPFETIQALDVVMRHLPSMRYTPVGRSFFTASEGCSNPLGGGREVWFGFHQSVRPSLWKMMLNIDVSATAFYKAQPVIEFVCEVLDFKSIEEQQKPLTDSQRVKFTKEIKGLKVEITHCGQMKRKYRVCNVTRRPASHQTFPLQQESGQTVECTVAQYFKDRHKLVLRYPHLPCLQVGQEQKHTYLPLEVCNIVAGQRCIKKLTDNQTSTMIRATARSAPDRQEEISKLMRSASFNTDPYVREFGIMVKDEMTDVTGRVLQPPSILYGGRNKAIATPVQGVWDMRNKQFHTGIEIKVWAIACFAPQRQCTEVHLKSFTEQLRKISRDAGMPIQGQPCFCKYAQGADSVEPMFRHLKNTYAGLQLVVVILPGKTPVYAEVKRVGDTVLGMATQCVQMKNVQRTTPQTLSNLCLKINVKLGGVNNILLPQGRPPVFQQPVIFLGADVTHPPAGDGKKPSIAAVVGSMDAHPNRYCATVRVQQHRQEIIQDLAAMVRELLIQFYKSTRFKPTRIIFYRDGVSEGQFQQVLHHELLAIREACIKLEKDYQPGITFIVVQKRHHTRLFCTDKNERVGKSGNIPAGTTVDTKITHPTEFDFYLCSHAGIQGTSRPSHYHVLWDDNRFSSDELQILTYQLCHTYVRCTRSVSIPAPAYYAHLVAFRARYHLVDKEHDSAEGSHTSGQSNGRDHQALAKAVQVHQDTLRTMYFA

B1: His-hPACT (human protein activator of protein kinase R), purified under native conditions (natural protein, UniProt O75569 1-313, looked up)
chain: MSQSRHRAEAPPLEREDSGTFSLGKMITAKPGKTPIQVLHEYGMKTKNIPVYECERSDVQIHVPTFTFRVTVGDITCTGEGTSKKLAKHRAAEAAINILKANASICFAVPDPLMPDPSKQPKNQLNPIGSLQELAIHHGWRLPEYTLSQEGGPAHKREYTTICRLESFMETGKGASKKQAKRNAAEKFLAKFSNISPENHISLTNVVGHSLGCTWHSLRNSPGEKINLLKRSLLSIPNTDYIQLLSEIAKEQGFNITYLDIDELSANGQYQCLAELSTSPITVCHGSGISCGNAQSDAAHNALQYLKIIAERK
notes: No removal of the His tag is described; also called hPACT^nat; source: E. coli BL21 (DE3), purified under native conditions (Talon Superflow)
Consider B1, for which the binding result is listed as “binds”.
